Results from patent US20110020833A1.
Where no end group is shown, it is not given here.

These binders were tested against BSA+oligo-Lys conjugate (oligo-Lys peptide K14C coupled to bovine serum albumin) (bovine) (UniProt P02769) (assay: MACN-labeled peptide in plasma matrix, 30 min in tubes coated with oligo-Lys-BSA to which the oligo-Asp-anti-PCT antibody was bonded; luminometer).
Chain of UniProt P02769 (P02769 25-607, stated change not applied): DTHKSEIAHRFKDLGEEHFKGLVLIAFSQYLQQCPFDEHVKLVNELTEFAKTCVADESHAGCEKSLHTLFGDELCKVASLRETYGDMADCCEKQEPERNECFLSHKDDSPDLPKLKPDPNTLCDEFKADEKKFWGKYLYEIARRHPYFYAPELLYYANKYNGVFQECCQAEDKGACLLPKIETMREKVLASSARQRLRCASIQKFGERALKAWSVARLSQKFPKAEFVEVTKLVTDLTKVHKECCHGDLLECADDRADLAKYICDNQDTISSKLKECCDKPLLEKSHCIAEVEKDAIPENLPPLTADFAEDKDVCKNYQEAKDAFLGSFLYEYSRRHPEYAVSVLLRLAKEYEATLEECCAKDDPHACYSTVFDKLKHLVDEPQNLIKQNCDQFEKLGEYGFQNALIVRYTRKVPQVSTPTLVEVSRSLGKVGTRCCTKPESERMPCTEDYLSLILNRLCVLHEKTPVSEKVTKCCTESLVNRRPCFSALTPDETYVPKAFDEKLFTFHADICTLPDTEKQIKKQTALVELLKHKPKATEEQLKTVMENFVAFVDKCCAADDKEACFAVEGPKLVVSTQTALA

Row | Binder | percentage of non-specific binding relative to the total activity [%]
1 | SSEEHLRQTRSETMRNSVKSSFHDPKLKGKPSRERYVTHNRAHW (also: MACN acridinium label, site not given here) [MACN-labeled peptide PSW44 (derived from proEndothelin)] | 3
2 | ATQLDGPAGALLLRLVQLAGAPEPFEPAQPDAY (also: MACN acridinium label, site not given here) [MACN-labeled peptide PAY33 (derived from copeptin)] | 6.5
3 | PEVPPWTGEVSPAQRDGGALGGGGRGPWDSSDRSALLKSKL (also: MACN acridinium label, site not given here) [MACN-labeled peptide PPL41 (derived from NT-proANP)] | 3.1
4 | ELRMSSSYPTGLADVKAGPAQTLIRPQDMKGASRSPEDSSPDAARIRV (also: MACN acridinium label, site not given here) [MACN-labeled Peptide 45-92 (derived from pro-adrenomedullin)] | 2.9
